Laboratory results from the DeepSol protein solubility set.

Experiment: soluble on expression in E. coli; label from the status in PepcDB or PDB records

Soluble on expression in E. coli, not soluble:
LSPLPRAYQWADGSAYLNHVELVRKARGAEVPASFYTDPLMYQGGSDAFLAPTADIPLRDEAWGLDFEGEVAVVTGDVPLGAPADAKYIRLLMLVNDVTLRGLIPPELAKGFGFFQSKPATAFSPVAVTPDELGDAWDGGKVHLPLLVDYNGAFYGKPDCGVEMQFSFPQLVAHVSKTRELVAGSIVGSGTISNKDRSVGSCCLAEQRMIETIEQGAPKTPFMKVGDTVRIEMRNAAGDSIFGAIEQTVVKHD
MSLNIAVMEKGAAQPGDRLLSDVSLPALVIHNQALEHNIRWMQQFVTDSGAELAPHGKTSMVPALFRRQLDAGAWGMTLATAIQTQTAYAHGVKRVLMANQLVGAPNMAVIASLLADPMFEFHCMVDHPDNVAALGEFFAAHGLRLNVMIEYGVPGGRCGCRSEAEVLALADAVQAQPALALSGIEGYEGVIHGDQAIAGIKAFAASLVSLAVNLQDKGAFALDRPIVTASGSAWYDLIAEAFDAQAVRDRFLSVLRPGSYVVHDHGIYKDAQCCVLDRRAELSEALRPALEVWAHVQSMPEPGFAVIAMGKRDVAYDAGLPNPLLRYTPGVSSAPGDDVSACKVTAVMDQHAFMTVAADCELKVGDIISFGTSHPCLTFDKWRSGCLVDDDLRVIEPFHTCFEGHHHHHH
MIGCLCIHGFTGSPEEVAPLADYLRERTDWMIETPTLPGHGSELRLKGITYDQWIAAAEQAFLALHHRCSVVYVIGFSMGGVIAVYLAEKYPVAKLVLLSAAFYYVNPRQLWRDIREMFANGWKGAREHPLFLRYRNKMMATPFSAVREFRKLVRDVRPRLPRVAAPALIVQGEKDGIVPLKSAYYLYEQIGSAEKKLLLLPNSFHHVCHSIDRHVLFAEVETFLRAAHAHHCKSPHNMV
AHHHHHHGSTKVYIENYGCARNRADGEIMAGLLLSSGYEIVEGEENADIVVVNSCAVKDPTEVKIARRIRELLDRGKKVIVTGCLPHVNPDAIDERVSAVLGVKSIDRIVQAVEYALRGEKLISVPDWRKRNLDKLDFPRLSPRGVHFILPIAEGCLNGCTYCATRSARGVLKSYSPEKIVEWVKWAIRQGYKEIWLSAEDTGCYGFDIGTNLAKLLDEITAIEGEFRIRVGMMNPNHVLKFLDELIEAYKDEKVYKFLHLPVQSGDNEILRRMGRTYTVEEFEEIVNAFRREFPDLNLHTDIIVGFPGESEEAFQRSLELIKRIKPDKVNVSRYSPRPGTIAAKWKQLPGWVVKERSRIMHRVRLQISYEINQRYVGRKVDILVHGEGKKGNVDAVTMNYKHIIIPRGEKGEFARAKVNGATSTYLLGEIVD
MGSDKIHHHHHHMSVVNKIIGVCRFSYLGLGGFRINEAGAEEAAKALYAADRMTLRFAYFETICLPSLAAQTDSDFTFVALIADTMPLPFRQRLKRLTETYPFLRIAVLESTGPYNSTRRAFSRGLDGQETDFITGFRLDDDDAVSVDYIARTREAADTLITLGWATKDDPAAVCFHRGIYWDMKRPDAPFWDYSEIQPLGLASAMVHHRDSRQNIYRWNHRKLASKVRCWTDPSDVMFLRTLHDHNDSGRVMPRDAEQIPDEQARRLLKDRFGLNPKRLLSTMDRVHGGTDAARQWAAETREDPFGKDGDA
MSSSSFTTERPFTPELLSPAGTLKNMRYAFAYGADAVYAGQPRYSLRVRNNEFNHENLALGIQEAHALGKRFYVVVNIAPHNSKLKTFLRDLKPVIEMGPDALIMSDPGLIMMVRDAFPQMDIHLSVQANAVNWATVKFWQQMGLTRVILSRELSLEEIAEIRAQVPEMELEVFVHGALCMAYSGRCLLSGYINKRDPNQGTCTNACRWEYNVQEGKEDDVGNIVHIHQPIAVKNVEPTLGIGAPTDKVFVIEEAQRPGEYMTASEDEHGTYIMNSKDLRAIQHVERLTQLGVHSLKIEGRTKSFYYCARTAQVYRRAIDDAVAGKPFDPSLLTTLEGLAHRGYTEGFLRRHVHEEQQTYEYGYSVSERQQFVGEFTGVRREGLAEVLVKNKFSRGDSVELMTPKGNIQFTLESMQDKKGQPADIAPGNGHIMYLPIPEEIDVEYGLLIRNLNGTNSRNPHEKA
MANFNVPKLGVFPVAAVFDIDNVPEDSSATGSRWLPSIYQGGNYWGGGPQALHAQVSNFDSSNRLPYNPRTENNPAGNCAFAFNPFGQYISNISSAQSVHRRIYGIDLNDEPLFSPNAASITNGGNPTMSQDTGYHNIGPINTAYKAEIFRPVNPLPMSDTAPDPETLEPGQTEPLIKSDGVYSNSGIASFIFDRPVTEPNPNWPPLPPPVIPIIYPTPALGIGAAAAYGFGYQVTVYRWEEIPVEFIADPETCPAQPTTDKVIIRTTDLNPEGSPCAYEAGIILVRQTSNPMNAVAGRLVPYVEDIAVDIFLTGKFFTLNPPLRITNNYFADDEVKENTVTIGNYTTTLSSAYYAVYKTDGYGGATCFIASGGAGISALVQLQDNSVLDVLYYSLPLSLGGSKAAIDEWVANNCGLFPMSGGLDKTTLLEIPRRQLEAINPQDGPGQYDLFILDDSGAYASFSSFIGYPEAAYYVAGAATFMDVENPDEIIFILRNGAGWYACEIGDALKIADDEFDSVDYFAYRGGVMFIGSARYTEGGDPLPIKYRAIIPGLPRGRLPRVVLEYQAVGMSFIPCQTHCLGKGGIISKV
MRLYRDRAVVLRQHKLGEADRIVTLLTRDHGLVRAVAKGVRRTRSKFGARLEPFAHIEVQLHPGRNLDIVTQVVSVDAFATDIVADYGRYTCGCAILETAERLAGEERAPAPALHRLTVGALRAVADGQRPRDLLLDAYLLRAMGIAGWAPALTECARCATPGPHRAFHIATGGSVCAHCRPAGSTTPPLGVVDLMSALYDGDWEAAEAAPQSARSHVSGLVAAHLQWHLERQLKTLPLVERFYQADRSVAERRAALIGQDIAGG
MSEYPILPSTLIPADPRFGCGPSKVRPAQLNAIVNAGADVIGTSHRQPAVKNIVGSIREGLSSLFSLPDGYEIVLSLGGATAFWDAATFGLIEKKSGHLTFGEFSGKFAKASAQAPWLDEPTIISAEPGDTPTPVAMEGCDVIAWAHNETSTGAMVPVIRPENSDGQLVAIDATSGAGGLPVDMHNADVYYFSPQKCFASDGGLWLAAMSPAALERIEKINASDRFIPAFLNLQTAVDNSRKNQTYNTPAVGTLLMLENQVEWMNANGGLDAMVERTTANSSALYEWAEKRAETTPYVTDPAKRSLVVGTIDFDDSIDAAALAKVLRANGILDVEPYRKLGRNQLRIGMFPAIDTADMDTLTAAIDYVLDNGFAQA
MGSDKIHHHHHHMHYNDQGADFKYLIVNERDKRFGLSVTTVGFQAIRAGSVYPPRNHPDAYYFTAQKGRVLHEYQLVYITKGRGTFASDTTPSVDISKGQILFLFPGQWHTYAPLQKTGWNEYYIGFEGPIIDNLVKNSFISKESQILDIGINEELASLFARALEVAEADKTAAQQYLSGIVLHIMGAVLAISQNKRYEVDNAAQKIESAKIIMHENVYKDIDPEELAMKLGISYSWFRKVFKEYTGYAPAKYFQELKLRKAKQLLIESSMSVKEICYELNYTSTEHFFSVFKKRTNFTPTEYRNFGRGGKEKENENE
MLAFKVVISDKEKSVQMEVDPSESRGLIGLTIGDEFDGSIIGLSGYKLKITGGSDKNGFPMKKTVPGARRIRSLVSGGVGYKPRRDGERRRKTFRGNTISDDIVQINTVVIEKLEHHHHHH
MGSDKIHHHHHHMDERWMVMKITIVFENHAGYRKGLIGYHGFSALVEANGYRVLVDTGTDGKVLLNNMSELGISPDDIDALFITHGHYDHTGGLRELLSARTEALDIYAHPGIFKRRLALKPKKREIGIPFTREELEELGGKFILSDKSKEILPGFISSGEIERITWDRAVGYFPDGSKDPVRDDMALIVEEGSKSVVITGCGHSGIINIAIHSKKLTNNRIAALIGGFHLKGIERSLLDEAVKKLRELEIEKLYPGHCTGIEEFAYLWSKFGNVEGIHVGKEIKI
MSILEKIFKTRKDITYMLDLDMIEDLSQQAYVKRLAIDSCIEFVARAVAQSHFKVLEGNRIQKNDVYYKLNIKPNTDLSSDSFWQQVIYKLIYDNEVLIVVSDSKELLIADSFYREEYALYDDIFKDVTVKDYTYQRTFTMQEVIYLKYNNNKVTHFVESLFEDYGKIFGRMIGAQLKNYQIRGILKSASSAYDEKNIEKLQAFTNKLFNTFNKNQLAIAPLIEGFDYEELSNGGKNSNMPFSELSELMRDAIKNVALMIGIPPGLIYGETADLEKNTLVFEKFCLTPLLKKIQNELNAKLITQSMYLKDTRIEIVGVNKKDPLQYAEAIDKLVSSGSFTRNEVRIMLGEEPSDNPELDEYLITKNYEKANSGENDEKEKDENTLKGGDEDESGD
QRQSPIYHAQATVLIKSAEKSGATSGLQQFQELGLMIGNSEVENEILMLKSKRLTAIVVDKLDLDVSIYKQGFWRNESLYGNSPVSIQITDRDSTENYSFRIQINDAHSFQLTHFEQKERNGIGDIKIDGSFGRPIATPVGELKLNTTLFFADSWKGEVLYVTKENTRKVVERYNQDLQVSLADKKATIVNLSLKNEDLDRAKNFIDALIASYNDDVMNDKKSVAVSTAAFIDERLAMIGGELGTVDTEIETFKKRNNITDISTDVGTYLKSSADLQKDQLIVERNLSLAKYIQSFLRQTSTDNELMPANLGLTERGIDNSITLYNELKLKYDRLKQSSSENSPAVQEVGMQLVAMRKSINAAVDNYIKTLNLQLREVNKEMSRTKEQISAVPTQEKIMSTILRQQKIKEELYLYLLNKREENALRLAITESNAKTVDSADGSSEPISPRKP

Soluble on expression in E. coli, soluble:
MSLVRDIKTFKFFEVLLIYEMLEVLKALAMMNATRKVVKISSKELAEHIGQSLQTAARKLKELEDEGLIDRTLTKDGQFVVITEKGKQLLYKEYMDYKKIFDDEGTIKIKGEVFSGVGEGRYYVSLEGYRKQFREKLGFDPYPGTLNLRIPKEEMYFRRRLDEERGILIEGFSTEDRTFGEVKAFKCRINGIEGAIVIPKRTHYPAEILEVISPVKLRDKLGLKDGDFVEVEVILEGHHHHHH
MTTNSSSNTVVVYHSGYGHTHRMAEAVAEGAEATLHAIDAEGNLSEDGWAALDAADAIIFGTPTYMGGPSWQFKKFADASSKPWFSAKWQDKVFGGFTNSASLNGDKLNTLQYLVLLAGQHGGLWVSLGIKPSNLKSSVRNDANRMGSYIAPMAQSDADAAPEEMSVGDLETARLYGARVANVARQHKSTERV
MFEKGYVDENYIRVPKDRLFSFIVRVLTKLGVPEEDAKIVADNLVMADLRGVESHGVQRLKRYVDGIISGGVNLHPKIRVIREGPSYALIDGDEGLGQVVGYRSMKLAIKKAKDTGIGIVIARNSNHYGIAGYYALMAAEEGMIGISMTNSRPLVAPTGGIERILGTNPIALAAPTKDKPFLLDMATSVVPIGKLEVYRRKGKDIPEGWAINREGNITTKVEEVFNGGALLPLGGFGELLGGHKGYGLSLMVDILSGILSGGTWSKYVKNTSEKGSNVCHFFMVIDIEHFIPLEEFKEKISQMIEEIKSSRKHPEFERIWIHGEKGFLTMETRLKLGIPIYRKVLEELNEIAKRVGVEGL
MELNDMAQFNEPISSQLLAIDENLTQLVTDIDILSSVNPLNYAQERERFISNKYSQEPNFQYQKAPLDTHQSKRRLYELPLEHIEDTQLQKLYEDVIQSYADKLDQVNTIGTQEFLYNSLRYYGEPSAKDIANAHFILHLPTEEESKPEHDSRSIAHFMQSFADKNGYECEIQILDGMLANALVSGSRVKINSAAHITTDELEALAHHEMGVHLLTTLNGRQQPLKVLSLGCPANTNTQEGLAILCEYLSGHFSIKRLRTLALRVLAVESMIKERDFRHTFMLLKEQYKASDVQAFTITSRVYRGGGLTKDYLYLRGFREVLNAYDKLGDDFSLLLCGKTELKYFDLIRSLVNKGIFTQPKFISPALSTPKQTNPIHRYIVSALKLEHHHHHH
MKGQVVSLHLGLGSGLPKPRVEALELVAGFGAKGDRHAGKDPDRAVLVAGLSAYEKAQGAGIPLPYGALGENLLLDLDPHALPPGARLRVGEALLELSQVCPVCKSLSQFDLRLPKLLYGGRGVYARVLEGGVVRVGDPVLVLAPAR
